Test results: patent US20190106460A1, “BINDING INHIBITORS OF THE BETA. TRANSDUCIN REPEAT-CONTAINING PROTEIN” (priority 2011, published 2019)
Like-named read-outs stand apart in the source and are kept apart here. Starred links: 1 amine or outer side, 2 acyl side, 3 side chain; linkers in the order of their positions; H or OH if unused. Suc = O=C(CCC(=O)[*:2])[*:1]

Columns and labels:
[1] = target: HisβTrCP/Skp1 and HisβTrCP/GSTSkp1 (immobilised on NTA Biacore chip), Q9Y297; experiment: SPR, Biacore T200, βTrCP/Skp1 immobilised
[2] = target: βTrCP (tag cleaved and complexed with Skp1), Q9Y297; experiment: FP competition vs fluorescein-IκB peptide
[3] = target: βTrCP (tag cleaved and complexed with Skp1), Q9Y297; experiment: FP competition vs fluorescein-IκB peptide; remark: listed apart in the source
Fbw7, Q969H0 = target: T1, Fbw7, Q969H0; experiment: cell-based or functional assay
T1 chain: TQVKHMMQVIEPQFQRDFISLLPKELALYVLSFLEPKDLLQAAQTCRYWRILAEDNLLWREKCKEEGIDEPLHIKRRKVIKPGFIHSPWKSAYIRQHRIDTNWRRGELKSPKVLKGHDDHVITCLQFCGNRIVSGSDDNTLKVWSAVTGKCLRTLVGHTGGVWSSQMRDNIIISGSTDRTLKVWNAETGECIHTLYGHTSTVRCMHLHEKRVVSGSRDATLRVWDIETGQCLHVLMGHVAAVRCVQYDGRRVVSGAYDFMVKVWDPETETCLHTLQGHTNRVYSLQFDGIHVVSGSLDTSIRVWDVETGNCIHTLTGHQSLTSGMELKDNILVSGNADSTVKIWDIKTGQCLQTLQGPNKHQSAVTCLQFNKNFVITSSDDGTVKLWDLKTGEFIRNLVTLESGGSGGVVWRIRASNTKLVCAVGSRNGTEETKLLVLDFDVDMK

Skp2, Q13309 = experiment: cell-based or functional assay
Sequence of Skp2, Q13309 (Q13309 whole entry): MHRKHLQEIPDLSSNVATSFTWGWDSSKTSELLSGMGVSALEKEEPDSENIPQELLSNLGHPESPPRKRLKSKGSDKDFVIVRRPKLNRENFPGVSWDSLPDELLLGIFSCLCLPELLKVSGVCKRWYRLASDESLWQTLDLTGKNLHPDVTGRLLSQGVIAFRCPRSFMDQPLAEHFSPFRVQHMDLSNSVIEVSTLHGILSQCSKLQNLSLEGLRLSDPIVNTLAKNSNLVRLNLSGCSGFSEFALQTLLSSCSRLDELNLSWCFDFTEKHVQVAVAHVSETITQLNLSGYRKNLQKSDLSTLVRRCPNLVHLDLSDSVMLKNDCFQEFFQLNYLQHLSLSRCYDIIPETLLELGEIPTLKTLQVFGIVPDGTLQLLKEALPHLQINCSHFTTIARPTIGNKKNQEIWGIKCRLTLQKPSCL

Sequence of βTrCP (tag cleaved and complexed with Skp1), Q9Y297 (Q9Y297 175-605, chain 1 of 2): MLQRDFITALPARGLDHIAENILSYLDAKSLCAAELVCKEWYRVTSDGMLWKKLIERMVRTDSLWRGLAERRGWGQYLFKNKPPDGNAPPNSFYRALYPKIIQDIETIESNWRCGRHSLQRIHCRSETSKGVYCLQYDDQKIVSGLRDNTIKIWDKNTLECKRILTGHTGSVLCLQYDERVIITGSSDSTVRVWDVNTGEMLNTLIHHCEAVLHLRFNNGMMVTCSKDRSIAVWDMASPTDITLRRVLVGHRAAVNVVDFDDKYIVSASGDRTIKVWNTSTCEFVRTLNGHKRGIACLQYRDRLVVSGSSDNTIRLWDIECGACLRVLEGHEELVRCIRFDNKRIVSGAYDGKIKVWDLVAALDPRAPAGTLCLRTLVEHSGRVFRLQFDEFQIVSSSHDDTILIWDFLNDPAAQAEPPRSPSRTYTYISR
Sequence of βTrCP (tag cleaved and complexed with Skp1), Q9Y297 (P63208 whole entry, chain 2 of 2, further chain): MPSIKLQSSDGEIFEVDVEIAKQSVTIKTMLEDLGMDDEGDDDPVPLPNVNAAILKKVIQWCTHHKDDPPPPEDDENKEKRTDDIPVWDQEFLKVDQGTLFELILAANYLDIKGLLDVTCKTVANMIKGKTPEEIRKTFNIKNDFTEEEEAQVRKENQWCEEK
Sequence of HisβTrCP/Skp1 and HisβTrCP/GSTSkp1 (immobilised on NTA Biacore chip), Q9Y297 (Q9Y297 175-605, chain 1 of 2): as the sequence (Q9Y297 175-605, chain 1 of 2) above
Sequence of HisβTrCP/Skp1 and HisβTrCP/GSTSkp1 (immobilised on NTA Biacore chip), Q9Y297 (P63208 whole entry, chain 2 of 2, further chain): as the sequence (P63208 whole entry, chain 2 of 2, further chain) above

- Kd [1]: 537 nM
- IC50 [2]: 1000 nM
- IC50 [3]: 1040 nM
- % Inhibition Fbw7 @ 10 µM (Fbw7, Q969H0): 0%
- % Inhibition Fbw7 @ (100 µM) (Fbw7, Q969H0): 0%
- % Inhibition Skp2 @ 10 µM (Skp2, Q13309): 11%
- % Inhibition Skp2 @ (100 µM) (Skp2, Q13309): 28%
B1: Suc-EGYFE-NH2 (peptide)
peptide: Suc-EGYFE-NH2
SMILES: NC(=O)[C@H](CCC(=O)O)NC(=O)[C@H](Cc1ccccc1)NC(=O)[C@H](Cc1ccc(O)cc1)NC(=O)CNC(=O)[C@H](CCC(=O)O)NC(=O)CCC(=O)O
